# Test results taken from article doi:10.1101/2024.09.16.613335, “Structure-guided assembly of an influenza spike nanobicelle vaccine provides pan H1 intranasal protection” (bioRxiv, 2024).
# B1: hemagglutinin (HA) spike on spiked nanobicelles (SNB) purified from the Fluad vaccine (natural protein)
# chain: not shown
# Molecular target: the molecule itself
# Assay: cryo-EM structure
protein,measurement,value
B1,stoichiometry N,3
